Laboratory results taken from patent publication US10801046B2, “Methods and materials for biosynthesizing multifunctional, multivariate molecules via carbon chain modification” (INVISTA NORTH AMERICA S.A.R.L., priority 2016, dated 2020).

Test: In vivo carboxylate reductase screening, substrate consumption by LC-MS, heptanedioate
Format: cell-based, Escherichia coli
Conditions: 541 enzymes screened in vivo
Method: To screen carboxylate reductases in vivo, […] T7- pUC expression vectors was co-transformed into T7 Express lysY/Iq with the phosphopantetheinyl transferase sfp from Bacillus subtilis on a T7-pCDF expression vector. Biological duplicates of the resulting strains were incubated in 0.5 mL of terrific broth containing either 1 g/L heptanedioate or 1 g/L monomethyl heptanedioate and supplemented with 0.4 mM IPTG in 96-well deep well plates. The plates were incubated for 30 h at 30° C. in a shaking incubator. The cells were then pelleted, and culture supernatants from the same strains in media containing either heptanedioate or monomethyl heptanedioate were combined. The combined supernatants were analyzed by LC-MS to determine the concentration of heptanedioate and monomethyl heptanedioate. Carboxylate reductase activity on heptanedioate or monomethyl heptanedioate was reflected by consumption of the respective substrate in the medium.

Molecule | substrate preference, heptanedioic acid to 7-oxoheptanoate
SEQ ID NO: 206: Phytophthora sojae (strain P6497) carboxylate reductase (protein, Phytophthora sojae (strain P6497), Phytophthora sojae (strain P6497) carboxylate reductase) MGAGSSSELPMSQIDFDSYTGKRYTVEVPNTRDATHGPAYEVADKEPVNEDEMTLYHNFLRGCSIEHGTRPLYGRRTVDADTGKAGAFEWLTYNEVKTRVERVASGLKAVGALERQDVVGVFSKNQLEWCLVAHACDRMSYVLVPLYDTLGPDAVPFIVNHTELRVLFCGKKQFDVVMDCVKDCPTLKTIVQFEPVTEQQIQQAAAKNLELRSLEELELLGEADPKRADPPKPTDVSTLCYTSGTTGDPKGVILLQRNYAYVVRQMCKRMQIFPSDVHCSYLPLAHVFERSVLGVLQAHGASAGFYQGDLLTLMDDLVELKPTVFVSVPRLFNRVYDKITQGVAAAGGLKKILFDRALAAKLAGLPEGHKTHALWDALVFSKVRLALGGRVRLIFSGSAPLSAEVKEFMKVVFCCDVAEGYGLSETAAAVTVGSVDMPMGPHVGCPLIYGQVQLEDVPEMGYTSRDKPRPRGEILVKGPMIFSGYYKEPEKTREAIDERGWFHTGDIGCWNADGTLSIIDRKKNIFKLAQGEYVAAEKIENIYAKSKYVAQIFAYGDSLQSCLVGIVVPDPETAEAWAQEKGLTGADASAAKVATNPEFQKAVLADMARVAKEAQLRGFEFVKSVHFHPEPFSLEQGLITPTFKLKRPQLKAHFQQQINMLYEGLK | preferred acting upon heptanedioic acid to form 7-oxoheptanoate
SEQ ID NO: 196: Chromera velia CCMP2878 carboxylate reductase (protein, Chromera velia CCMP2878, Chromera velia CCMP2878 carboxylate reductase) MGAQCSAKNSLTYSIPYGEPQAEDESALYANPYMPELAGCDGLKSCWENFEVAVSSTGDKPAVGTREKQADGTLGKYVWKSWKEVAETVANLHAGLQSLDAFPLQSFPEESVQQTFKFLGVTGKNREEYLETMLAAYRAGVCLVPLYDTLGENTYEYCINQTGLKTVIVGDLKIASKLLHVAKKCECFKIIVCMDAVSDELKQEANASGVTIHSFEEVCEIGKQKPVDPTPAQSDMEINTICYTSGTTGNPKGVLVTHRALLTALSTSDELFKKEGFKIDFNDTHISYLPYAHVMERAVTEICVRRGMRIAFYSGDTTKIVDDIQLARPTVFFSVPRLYTRIYDRILSQAAAAGGIKKSLFDRALESKLTELRSTGNFTHKLWDAIVFSKIKDVLGGRVRFLVTGSAPMAKEVQEVLKVCFCCPMMEAFGMTETACCGTATAALDPTTGHVGGVVPGILLKVKGIPEMGYSPNDRGENGELMPRGELMVKGAAVFPGYFKEPEKTKEALDADGWLRTGDVCVINPNGSFKIIDRAKNIFKLAQGEYVAPEKIENIYIQCESVAQAFVTGYGTEKVLVCVVVPDEGYAKNWAKEKGLEGDAASLSALCATHGDLEAEVFKQIDAIGKARGLSGIEKAKAVRLYAEPFSVENDLLTATFKLKRHQANKTFKAQIDEMYAELNAKEKARGGS | preferred acting upon heptanedioic acid to form 7-oxoheptanoate
SEQ ID NO: 197: Cyberlindnera jadinii carboxylate reductase (protein, listed as Cyberlindnera jadinii) MNFNQPVNPQPVPGSRVEGYSEIFTNDPPVVLDPSMDTLSKMWNNAVANFANFDCMGVRKFHNTRKQQLDTFFTYDSYAEVDRKKHNISCGIIHLVTHHPKYRELLSIAGKPEFVVGILSPNRYEWMLVDLATRDFSLTNTALYPTLGQQSSQYILSVTESPIIFLTKDQIPKILEIKPELPLLNILVSLDDFDHDDHDLFVRAQSLGVSLVDFRAVEKIGERHPLPKDFNPPTTDTIYTISFTSGTTGNPKGVLIPHEMAACGIISCTMGLESPFELPKGAKRRQFGENVDQHGVQVTALCHLPLAHIYEREISNYALMSGFRLGFPSSTNPAMFFDDLKSIKPHYLASVPRVYNKLDALLKAKVKRGTPPHVVRKTFGLDHCRYLVSGSAPLGVETIKYLKQTLDIGFSVCYGSTETFAGFFFGDAFEDVITNSCGHPSASVQIRLRDVPEMGYHTNETPMRGELMVKGPQVFSEYFKNPKATADSFDKDGWFHTGDIVSMDSERRVYIIDRVKNFFKLQQGEFVTPERIENIYLAHSPLLTQLFVHGDSLQNFLVGVAGISLEYVQEMFKQDFGVAISQDEVLGLLQDPKYKAMLIKQLNHHVSGADLQGFEKIHNIHVDLEPLRLEDEVLTPTMKIKRENAKKKFAPILEKLYTEGSLVVKQKL | preferred acting upon heptanedioic acid to form 7-oxoheptanoate
SEQ ID NO: 198: Pestalotiopsis fici W106-1 carboxylate reductase (protein, Pestalotiopsis fici W106-1, Pestalotiopsis fici W106-1 carboxylate reductase) MESYIEKARRYAQPPPPGAPQGVAVPNSKLPGRSAVYRHWRRGDELPDYFDPDLSSGYDMFEQTAKRQPDARCLGYRPYNGSTKSFGPYIWYSYDNVLKRSTDFGKGLAELLEANGVGGRQRPVGLWCANRPEWQFVDLGAMSQSLYSISLYETLGPAATEFLINHAEIPVVCASLEHIPALILAAPRCPSLKLIISLDPLTEEIDAPGTSRKELLSSLAAEKGLQVHDFRDVEKAGQASSRSLNRPRPDDIFTINYTSGTTGNPKGVVLRHSNAVAATVTCLTVYPMRSSDVLCSYLPLAHIYERFVEISAMYGGGSIGYFHGNPLELIDDLKLLRPTIFTSVPRLLNRMGSSIKAATIEQQGVKGALSRYIMETKMANIENDDPAKATNKHMVYDRIWGRKITAALGLDRTVHMMSGSAPLDGGLQQFLRIVFATEIVQGYGSTEMFAICLAQSAGDMSVRNCGGPAACVEVCLLDLPDMGYFSSDQPCPRGELLMRGPNVFSEYYKDDEETSKAFTEDGWFKTGDICAVDELGRFSIIDRRKNLLKLAQGEYISPEHIENVLLAQRPWLAQGYVHGDSAEAHLVGIFGVQPDIFCNFLNRTLGKECKPEDTDQLEAVLQEPEVRSAVVKELAMVGKSAKLNSYEIPRAVRLMIEPFTVENGLLTPTLKLKRPQTAKKFDHLIKEMYAETRKTSTLMAKL | preferred acting upon heptanedioic acid to form 7-oxoheptanoate
SEQ ID NO: 199: Caenorhabditis elegans carboxylate reductase (protein, Caenorhabditis elegans, Caenorhabditis elegans carboxylate reductase) MVDESDVKSALNGHDRPFTITLAIVLLKIVFFIYDVVTFIPFKIFADPAEKLEKSERVKAEPDNGDPTTPWKNVSAKDGLMNSSFEGIHDLGTQWEECVRRYGNQPCMGTREVLKVHKEKQSNGKIFEKWQMGDYHWRSYAQVDKRVNMIASGLTSLGQQEKEPIILFAETREEWMTTALACMKMNFPIATMYATLGDEAVQFAINEVGAKTIFTSEALISKVKKAMSNGATSIENIIFFDSVDPASRGESVDVDLPFTLLSFDQLLSRGEPYPVPTRSKKDDLAFIMYTSGTTGNPKGVMISHQNIVAVTAGQAFNIVLGPDDRYIGYLPLAHILEVCAEMVVFTKGVRIGYSSAQTLFDRAPKIMKGEHGDCWVLQPTLMACVPAVMDRIFKAVIDEVNANSELFKQLFKTCYERKRSRYEEGYTSFILNKLVFNRIGKLLGGKVRQILSGGAPLSPETQRFMNICFCCPVVQGYGLTETCGGGTIADIHDLSTGTVGPPLTCCEILLQEWAEAGYSPKNDPPQGEILISGPNVALGYFKNDEKTKEEFVKVNGKTFFATGDIGEFREDGSLKIIDRKKDLLKLAHGEYISLGKVETNLLTNPNVDNVCVYGDSNKSFLVALVVPNQKNLTQLASKAGASNDNFEKLCEDKKVVEALQKELAQYGASKLQRVEIPQKIFICHEPWTPASGLLTEALKLKRKNIEKAFRKELDELYK | preferred acting upon heptanedioic acid to form 7-oxoheptanoate
SEQ ID NO: 200: Tetrahymena thermophila (strain SB210) carboxylate reductase (protein, Tetrahymena thermophila (strain SB210), Tetrahymena thermophila (strain SB210) carboxylate reductase) MGANQSSRIYNVPIDEKKDGYSQIMRHPKYIDKLEYKPIPEIDNVQDLVLHGYSNSKEMNFFGKKNPVSNEFEYMTYDQVIEQAKQLGSAVKNLQFLKESSEQSNQKMELIGIYSKNRIEWGIADIANSLYGYTMVPLYDSLGPDSISYVLANSEITTCYCSAASVLTLSKTKDLHHLKNIISFDHVSEDLIELVKQRGIVVHLFKDIVEKGSLNVLPLPKLTRDTIFTFCYTSGTTGNPKSAMISHKNILASVTNYDKSDCFLTQDDVHLSYLPLPHIYERFINVYCWFKGTKIAFYSGDVHKIQEDIIASKPTCFSAVPRLLNRFYDAINSKLNQATGFQKILIQHALQTKLENIQKNGVYTHILYDKIIFNKIREQFGGRIRQLVCGSAPTSPKVFDFFKAVLSCSVIEGFGQTELSGVVTIQVKADPKMGNVGGIGPSSELKLEDVPEMEYLSTDKDELGNPKPRGEICVRGYNVFSGYYKDEEKTKEAIDQEGWFHTGDIGEIIPNGGLKIIDRKKNLFKLSQAEYVSPEKVENIYVRARGVQEVYIHGESLYNYCIGIIVPSQEELLKIAAELNISETDIASLCKNQQIISWYIKTIHNLGKHEGLFSFEQPKKIYLEPKSFLVIGCVTNSFKLQRHHAKNYFKNIIQELYNNNNNQ | preferred acting upon heptanedioic acid to form 7-oxoheptanoate
SEQ ID NO: 201: Auxenochlorella protothecoides carboxylate reductase (protein, Auxenochlorella protothecoides, Auxenochlorella protothecoides carboxylate reductase) MSTFPPLDAQCVVLPEKLNAPGPWTVRRNANFPEALIDSFDGEESHVRTCYDLLEHSVVKYPDSPYLGTRSVDARGAPGPYAWLSYSQVGEARTQIGSGLAHLGVRPGSNVGLFSTNCADWVLVDAALHAYACVSVPLYDTLGADVVQFVNNHAELAAVACSAATLPALLETLPASPTVAVVVVYAAPAGFRMPATPPGSAARLVSLDRLRALGMKHPSPHVPPSPADTALINYTSGTTGMPKGVVLTHANIVASIAGQIRSTAVLATIDATERHISYLPLAHIFERVTYMSVTHRGGAIGFFRGDVLTLLEDIQALRPTYFPSVPRLWNRIYDRIMAQVAASSPVKRRLFETAYAYKKRHMAAGDMTGGPWAGFWNRLVFNKIKQAVGGEVRMMVSGASALSPEVFEFMRIVFDCVVIEGYGMTETTSGATISIPGDPVIGHVGIPTPACEVKLADVPEMGYTNADLPRPRGEICVRGPLRFKEYYKDPENTRETIDEEGWLHTGDIGTWLPGERLKIIDRKKNIFKLSQGEYVAPEKIENIYVRSPYVAQVFVHGDSLRSCIVGVVVPDPEVLLPWAKQRGLPQDLATLCEDEQVKAMIQKSLSEEARVAKLKGFEQVADIVLTPVPFSVETGTMTPTFKLKRPQLREAYAPALEAMYARLPM | preferred acting upon heptanedioic acid to form 7-oxoheptanoate
